Reference: PMC2132731 (The Journal of Cell Biology, 1998)
Values joined by “and” are separate entries in the source; they are usually repeats but may differ in a detail not shown here. Identical values can stand only once. One block for each molecule: values may come before it.

Tests used:
[1] = target: GST-yAP180A C5 (S. cerevisiae); assay: pull-down
Pan1p EH1–2 (96–713) = target: T1, Pan1p EH1–2 (96–713) (S. cerevisiae, UniProt P32521 96-713); assay: two-hybrid
T1 sequence (looked up): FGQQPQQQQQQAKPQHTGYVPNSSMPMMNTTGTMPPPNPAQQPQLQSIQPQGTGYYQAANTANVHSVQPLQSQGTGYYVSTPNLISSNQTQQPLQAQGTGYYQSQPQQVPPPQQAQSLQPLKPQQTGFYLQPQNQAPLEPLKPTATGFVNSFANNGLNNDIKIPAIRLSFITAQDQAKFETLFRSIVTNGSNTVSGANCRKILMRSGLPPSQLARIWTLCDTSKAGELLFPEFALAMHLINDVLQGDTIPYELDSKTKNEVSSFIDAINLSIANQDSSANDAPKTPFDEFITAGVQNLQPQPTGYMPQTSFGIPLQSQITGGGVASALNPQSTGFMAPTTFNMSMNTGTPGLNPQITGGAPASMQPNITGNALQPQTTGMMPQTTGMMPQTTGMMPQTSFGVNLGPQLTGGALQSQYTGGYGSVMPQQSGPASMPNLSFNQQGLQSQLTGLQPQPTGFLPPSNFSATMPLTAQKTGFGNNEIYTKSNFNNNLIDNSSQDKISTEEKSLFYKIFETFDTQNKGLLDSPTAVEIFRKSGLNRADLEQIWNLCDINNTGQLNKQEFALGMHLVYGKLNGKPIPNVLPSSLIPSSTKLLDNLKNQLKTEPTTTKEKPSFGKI

Pan1p EH1 (96–403) = target: T2, Pan1p EH1 (96–403) (S. cerevisiae, UniProt P32521 96-403); assay: two-hybrid
T2 sequence (looked up): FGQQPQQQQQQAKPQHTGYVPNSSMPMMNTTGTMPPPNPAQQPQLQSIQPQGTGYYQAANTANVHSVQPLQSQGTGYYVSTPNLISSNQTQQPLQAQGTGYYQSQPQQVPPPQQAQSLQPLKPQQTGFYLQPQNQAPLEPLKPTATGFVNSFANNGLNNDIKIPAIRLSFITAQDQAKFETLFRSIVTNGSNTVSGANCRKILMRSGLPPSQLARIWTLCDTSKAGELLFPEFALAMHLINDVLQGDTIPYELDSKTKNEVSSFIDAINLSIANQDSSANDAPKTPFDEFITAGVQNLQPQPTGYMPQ

[2] = target: T3, Pan1p EH2 (96–145/403–713) (S. cerevisiae, UniProt P32521 96-145; P32521 403-713); assay: two-hybrid
T3 chain (looked up): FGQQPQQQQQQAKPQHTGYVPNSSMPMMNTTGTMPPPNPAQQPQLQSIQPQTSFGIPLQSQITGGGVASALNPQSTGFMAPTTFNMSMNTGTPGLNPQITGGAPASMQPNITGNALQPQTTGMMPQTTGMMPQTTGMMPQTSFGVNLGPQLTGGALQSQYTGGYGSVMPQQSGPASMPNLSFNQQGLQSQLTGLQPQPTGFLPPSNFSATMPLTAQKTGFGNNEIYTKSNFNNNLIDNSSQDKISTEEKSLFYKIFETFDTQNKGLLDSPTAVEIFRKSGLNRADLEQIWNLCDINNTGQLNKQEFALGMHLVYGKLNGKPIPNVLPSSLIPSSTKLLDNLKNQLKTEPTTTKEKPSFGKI

Pan1p EH2 (544–713) = target: T4, Pan1p EH2 (544–713) (S. cerevisiae, UniProt P32521 544-713); assay: two-hybrid
T4 sequence (looked up): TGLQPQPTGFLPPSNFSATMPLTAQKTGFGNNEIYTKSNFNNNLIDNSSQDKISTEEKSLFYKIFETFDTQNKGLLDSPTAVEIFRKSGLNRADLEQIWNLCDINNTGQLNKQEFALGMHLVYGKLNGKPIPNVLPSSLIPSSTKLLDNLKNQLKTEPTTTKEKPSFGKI

[3] = target: T5, Pan1p (S. cerevisiae (endogenous in yeast cells)), P32521; assay: co-IP; details: remark: other sources report otherwise
T5 chain: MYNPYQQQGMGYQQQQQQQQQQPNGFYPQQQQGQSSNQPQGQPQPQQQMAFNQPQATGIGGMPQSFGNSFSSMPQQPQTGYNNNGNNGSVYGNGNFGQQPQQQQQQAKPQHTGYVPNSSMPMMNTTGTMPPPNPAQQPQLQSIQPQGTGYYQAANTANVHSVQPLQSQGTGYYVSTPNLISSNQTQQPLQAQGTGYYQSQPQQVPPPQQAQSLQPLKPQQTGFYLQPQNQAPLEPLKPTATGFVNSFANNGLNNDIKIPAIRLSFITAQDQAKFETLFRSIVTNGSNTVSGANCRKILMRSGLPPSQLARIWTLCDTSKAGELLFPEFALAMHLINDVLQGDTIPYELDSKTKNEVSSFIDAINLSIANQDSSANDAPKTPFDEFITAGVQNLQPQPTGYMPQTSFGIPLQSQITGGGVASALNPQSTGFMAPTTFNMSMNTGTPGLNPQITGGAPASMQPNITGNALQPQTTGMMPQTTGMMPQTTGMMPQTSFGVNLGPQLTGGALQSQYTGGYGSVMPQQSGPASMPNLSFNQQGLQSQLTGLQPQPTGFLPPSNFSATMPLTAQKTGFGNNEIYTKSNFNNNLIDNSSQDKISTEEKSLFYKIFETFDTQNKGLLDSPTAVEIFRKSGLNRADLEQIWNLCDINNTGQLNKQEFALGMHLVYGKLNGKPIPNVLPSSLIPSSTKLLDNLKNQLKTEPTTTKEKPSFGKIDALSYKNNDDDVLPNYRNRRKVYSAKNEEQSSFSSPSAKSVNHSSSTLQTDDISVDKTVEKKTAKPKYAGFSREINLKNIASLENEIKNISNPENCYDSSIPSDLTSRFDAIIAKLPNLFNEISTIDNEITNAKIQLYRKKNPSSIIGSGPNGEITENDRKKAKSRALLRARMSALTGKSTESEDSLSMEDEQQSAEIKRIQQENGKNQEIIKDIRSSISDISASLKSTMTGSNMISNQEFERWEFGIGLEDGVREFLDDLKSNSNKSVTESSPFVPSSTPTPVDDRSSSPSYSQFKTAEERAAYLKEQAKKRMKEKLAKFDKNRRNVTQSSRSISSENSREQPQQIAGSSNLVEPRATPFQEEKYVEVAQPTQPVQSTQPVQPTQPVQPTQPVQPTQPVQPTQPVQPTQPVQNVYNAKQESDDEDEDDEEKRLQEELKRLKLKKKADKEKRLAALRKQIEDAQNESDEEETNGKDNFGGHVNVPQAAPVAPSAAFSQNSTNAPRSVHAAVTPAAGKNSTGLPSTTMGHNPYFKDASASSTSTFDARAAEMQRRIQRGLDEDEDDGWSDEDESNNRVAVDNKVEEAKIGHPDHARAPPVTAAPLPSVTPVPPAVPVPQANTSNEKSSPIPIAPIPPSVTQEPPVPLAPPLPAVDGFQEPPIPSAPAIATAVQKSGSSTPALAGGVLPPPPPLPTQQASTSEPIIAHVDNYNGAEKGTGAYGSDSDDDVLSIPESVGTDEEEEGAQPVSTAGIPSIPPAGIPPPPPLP

percent of Chc1p depleted from the unbound fraction [1]: 50%
Molecule: yeast clathrin (from UniProt P22137 1-1653; P17891 1-233) (complex)

units β-galactosidase activity (Pan1p EH1–2 (96–713)): 117 ± 75 Units β-galactosidase activity | units β-galactosidase activity (Pan1p EH1 (96–403)): 6 ± 1 Units β-galactosidase activity | units β-galactosidase activity [2]: 33 ± 4 Units β-galactosidase activity | units β-galactosidase activity (Pan1p EH2 (544–713)): 4 ± 1 Units β-galactosidase activity
B1: yAP180A 432–637 (domain or fragment, S. cerevisiae, UniProt P38856 432-637, looked up)
chain: GGYSVSQDTTAASNQQVSHSQTGSNNPFALHNAATIATGNPAHENVLNNPFSRPNFDEQNTNMPLQQQIISNPFQNQTYNQQQFQQQKMPLSSINSVMTTPTSMQGSMNIPQRFDKMEFQAHYTQNHLQQQQQQQQQQQQQQQQQPQQGYYVPATAGANPVTNITGTVQPQNFPFYPQQQPQPEQSQTQQPVLGNQYANNLNLIDM

units β-galactosidase activity (Pan1p EH1–2 (96–713)): 362 ± 67 Units β-galactosidase activity | units β-galactosidase activity (Pan1p EH1 (96–403)): 70 ± 9 Units β-galactosidase activity | units β-galactosidase activity [2]: 342 ± 15 Units β-galactosidase activity | units β-galactosidase activity (Pan1p EH2 (544–713)): 158 ± 15 Units β-galactosidase activity
B2: yAP180B 429–568 (domain or fragment, S. cerevisiae, UniProt P53309 429-568, looked up)
chain: GGYTTTENNAIMTGTLDPTKTGSNNPFSLENIAREQQQQNFQNSPNPFTLQQAQTTPILAHSQTGNPFQAQNVVTSPMGTYMTNPVAGQLQYASTGAQQQPQMMQGQQTGYVMVPTAFVPINQQQQQQQHQQENPNLIDI

units β-galactosidase activity (Pan1p EH1–2 (96–713)): 78 ± 2 Units β-galactosidase activity | units β-galactosidase activity (Pan1p EH1 (96–403)): 18 ± 7 Units β-galactosidase activity | units β-galactosidase activity [2]: 23 ± 4 Units β-galactosidase activity | units β-galactosidase activity (Pan1p EH2 (544–713)): 2 ± 0.4 Units β-galactosidase activity
B3: yAP180A 24–637 (domain or fragment, S. cerevisiae, UniProt P38856 24-637, looked up)
chain: LDPILLGTSNEEDFYEIVKGLDSRINDTAWTIVYKSLLVVHLMIREGSKDVALRYYSRNLEFFDIENIRGSNGSASGDMRALDRYDNYLKVRCREFGKIKKDYVRDGYRTLKLNSGNYGSSRNKQHSINIALDHVESLEVQIQALIKNKYTQYDLSNELIIFGFKLLIQDLLALYNALNEGIITLLESFFELSHHNAERTLDLYKTFVDLTEHVVRYLKSGKTAGLKIPVIKHITTKLVRSLEEHLIEDDKTHNTFVPVDSSQGSAGAVVAKSTAQERLEQIREQKRILEAQLKNEQVAISPALTTVTAAQSYNPFGTDSSMHTNIPMAVANQTQQIANNPFVSQTQPQVMNTPTAHTEPANLNVPEYAAVQHTVNFNPVQDAGVSAQQTGYYSINNHLTPTFTGAGFGGYSVSQDTTAASNQQVSHSQTGSNNPFALHNAATIATGNPAHENVLNNPFSRPNFDEQNTNMPLQQQIISNPFQNQTYNQQQFQQQKMPLSSINSVMTTPTSMQGSMNIPQRFDKMEFQAHYTQNHLQQQQQQQQQQQQQQQQQPQQGYYVPATAGANPVTNITGTVQPQNFPFYPQQQPQPEQSQTQQPVLGNQYANNLNLIDM

percent of yAP180A coimmunoprecipitated [3]: 3% and 5%
B4: yAP180A, P38856 1-637 (natural protein)
chain: MTTYFKLVKGATKIKSAPPKQKYLDPILLGTSNEEDFYEIVKGLDSRINDTAWTIVYKSLLVVHLMIREGSKDVALRYYSRNLEFFDIENIRGSNGSASGDMRALDRYDNYLKVRCREFGKIKKDYVRDGYRTLKLNSGNYGSSRNKQHSINIALDHVESLEVQIQALIKNKYTQYDLSNELIIFGFKLLIQDLLALYNALNEGIITLLESFFELSHHNAERTLDLYKTFVDLTEHVVRYLKSGKTAGLKIPVIKHITTKLVRSLEEHLIEDDKTHNTFVPVDSSQGSAGAVVAKSTAQERLEQIREQKRILEAQLKNEQVAISPALTTVTAAQSYNPFGTDSSMHTNIPMAVANQTQQIANNPFVSQTQPQVMNTPTAHTEPANLNVPEYAAVQHTVNFNPVQDAGVSAQQTGYYSINNHLTPTFTGAGFGGYSVSQDTTAASNQQVSHSQTGSNNPFALHNAATIATGNPAHENVLNNPFSRPNFDEQNTNMPLQQQIISNPFQNQTYNQQQFQQQKMPLSSINSVMTTPTSMQGSMNIPQRFDKMEFQAHYTQNHLQQQQQQQQQQQQQQQQQPQQGYYVPATAGANPVTNITGTVQPQNFPFYPQQQPQPEQSQTQQPVLGNQYANNLNLIDM
